Reference: patent publication US11912789B2, “Peptide activating agent” (Interk Peptide Therapeutics Limited, priority 2018, dated 2024)
Non-standard residues stand in square brackets, D forms with d. Residues, ends and D or L forms follow the SMILES beside them. No end group written: not given here. ξ: configuration not given here. ξGly(decyl) = CCCCCCCCCCC(N)C(=O)O; 2Adod = 2-amino-dodecanoic acid

Tests used:
Lck = target: T1, Lck (Homo sapiens, UniProt P06239); test: In vitro Lck activation kinase study (Eurofins); format: biochemical
T1 construct: purchased Eurofins Pharma Discovery Services UK Limited
Protocol: (§1) The ability of polypeptides of the present invention to activate Lck was examined in vitro. Lck is member of the Src family of tyrosine kinases. In vitro Lck activation kinase studies were conducted by Eurofins Pharma Discovery Services UK Limited (Dundee Technology Park, Dundee, United Kingdom) using ATP concentrations within 15 μM of the apparent Km in the presence of peptide substrate (KVEKIGEGTYGVVYK; (SEQ ID NO: 63)) and test polypeptide in semi-log dose ranges. All results in Examples X percentage Lck activity relative to control (100%).
(§2) The ability of polypeptides of the present invention to activate Src family kinases was examined in vitro. Lck activation studies were carried out as described above and all Lck activity values are shown as percentage relative to control. In brief, Table 4 and Table 5 illustrate the selective activation of Lck kinase amongst the Src family kinases in the presence of the peptide RSKAKNPLY at 10 μM concentration.
The effect of modification of cationic amino acid positions and substitutions of the peptide RSKAKNPLY was examined. In brief, peptides with amino acid sequence changes compared to the peptide Pep9 (RSKAKNPLY) were assessed for the ability to stimulate Lck activity. All results are shown as percentage relative to control (100%).
Lck activity was evaluated as described in Example 1 and all Lck activity values are shown as percentage relative to control (100%). For ease of description, the polyamide moiety is referred to by “nCy” wherein n is the number of repeating units of the polyamide moiety, Cy is the number of carbon atoms of the R group in each repeating unit, and each R group is a saturated, linear carbon chain. Thus, in the present example, “4C10” is to be taken to refer to a polyamide moiety as shown in Scheme 1 above which has 4 repeating units (n=4) in which the R group of each repeating unit is a saturated, carbon side chain that is 10 carbon atoms in length (e.g. four 2-amino dodecanoic acids).

Lck(h) = target: T2, Lck(h) (Homo sapiens, UniProt P06239); test: Western blot of Lck auto-phosphorylation at Y394 (anti-pY394 Lck); format: biochemical; details: 10 μM and 30 μM; ATP, no peptide substrate; FIG. 2
T2 construct: purchased Eurofins Pharma Discovery Services UK Limited
Protocol: Western blot studies were performed by Eurofins Pharma Discovery Services UK Limited (Dundee, United Kingdom). In brief, Lck(h) was incubated in the presence of test peptide employing standard KinaseProfiler™ reaction conditions (Eurofins Pharma Discovery Services UK Limited) and an ATP concentration within 15 μM of the Km. Reactions were allowed to proceed for 40 minutes at room temperature before being stopped by the addition of SDS-sample buffer. In each case the Lck enzyme was diluted to yield 20 ng per 25 μl reaction. Appropriate controls in the absence of compound and peptide were also run as well as an untreated sample of both the Lck(h) and Lck(h) activated kinases. The resulting samples were then subjected to SDS-PAGE and western blot analysis using the antibodies 4G10 (anti-phospho-tyrosine antibody) (see FIG. 3) and anti-pY394 Lck (R&D Systems MAB7500) (see FIG. 2). An additional blot using the secondary detection antibody (anti-mouse-HRP) was also performed. The membranes were stained by Ponceau S to verify sample loading and effective protein transfer. The 4G10 antibody is a general anti-phospho-tyrosine antibody and there are several tyrosine residues in Lck but only one auto-phosphorylating tyrosine residue, i.e., at position Y394. […] Samples were as follows (numbers correspond to the lanes on the gel): • 1. Molecular weight markers • 2. […]

wild-type Jurkat cells = test: IL-2, IL-12 secretion and IL-2Ra expression in Jurkat cells (anti-CD3/anti-CD28), ELISA; format: cell-based, human; details: 48 hours; for IL-2 secretion: Biotin-CD3, CD28 and avidin stimulation, supernatant ELISA, FIG. 14, FIG. 42A; for IL-12 secretion: Biotin-anti-CD3, anti-CD28 and avidin, FIG. 42B
Protocol: Cells were seeded at 1 million per well (12 well plate, 2 mL volume) and stimulated with Biotin-CD3, CD28, and avidin (5:5:1.25 μg). The cells were then treated with RSKAKNPLYR-(2Adod)4-NH2 at three concentrations as indicated plus vehicle control. The samples were then incubated for 48 hours at 37° C. after which supernatants were analysed for IL-2 content by ELISA.
Shown are Jurkat wild type (WT) cells and Lck deficient Jurkat cells (JCaM1.6) stimulated with anti-CD3/anti-CD28. 12 well plates were coated with anti-CD3 (5 μg/mL) solution made up in PBS (200 μL) and incubated at 37° C. overnight. The next day the anti-CD3 solution was aspirated and wells gently washed twice with media (1 mL, 10 minutes). Jurkat cells (WT and Lck Deficient) were seeded at 1 million per well in anti-CD3 coated 12 well plates, further stimulated with anti-CD28 (5 ug/mL) and at time zero treated with RSKAKNPLYR-(2Adod)4-NH2 (2.5 μM). Cells were incubated for 72 hours. For the IL-2 assay, left, supernatants were analysed for IL-2 content by ELISA. For the IL-2Ra assay, right, cells were lysed with 100 μL of lysis solution containing protease and phosphatase inhibitors as well as PP2 (10 μM). The collected cell lysates were subjected to the BCA protein assay. Cell lysates (40 μg protein) were then analysed for IL-2Ra by ELISA.
In two separate experiments, 5 million unstimulated JCam1.6 (Lck deficient) and 5 million 6.1 (WT) Jurkat cells, respectively, were seeded in T25 flasks. The cells were treated with RSKAKNPLYR-(2Adod)4-NH2 at 5 μM, 10 μM and 20 μM concentrations for 1 hour after which the cell suspensions were centrifuged and washed twice with fresh media. For each experiment, a mixture of Biotin-anti-CD3 and Avidin (5:1.25 ug) in 500 μL of media was added to the wells of a 12 well plate. After 10 minutes the unstimulated, washed cells were seeded at 1 million cells per well and the cell suspension made up to 2 mL volume with media. The samples were then further stimulated with anti-CD28 (5 ug/mL), after which the samples were incubated for 48 hours at 37° C. The supernatants (100 μL, n=3), were then analyzed for IL-2 content.
12 well plates were coated with anti-CD3 (5 μg/mL) solution made up in PBS (200 μL) and incubated at 37° C. overnight. […] Cells were incubated for 24 hours and supernatants were then analysed for IL-2 by ELISA.
12 well plates were coated with anti-CD3 (5 μg/mL) solution made up in PBS (200 μL) and incubated at 37° C. overnight. […] Cell lysates (40 μg protein) were then analysed for IL-2Ra by ELISA.
12 well plates were coated with anti-CD3 (5 μg/mL) solution made up in PBS (200 μL) and incubated at 37° C. overnight. […] Cells were incubated for 72 hours and the supernatants were then analysed for IL-2 by ELISA. […]

Blk = target: T3, Blk (Homo sapiens, UniProt P51451); test: In vitro Src family kinase activation study (Eurofins); format: biochemical; details: Table 5
T3 construct: purchased Eurofins Pharma Discovery Services UK Limited
Protocol: as §1, §2

Fgr = target: T4, Fgr (Homo sapiens, UniProt P09769); test: as above; format: biochemical; details: Table 5
T4 construct: purchased Eurofins Pharma Discovery Services UK Limited
Protocol: as §1, §2

Fyn = target: T5, Fyn (Homo sapiens, UniProt P06241); test: as above; format: biochemical; details: Table 5
T5 construct: purchased Eurofins Pharma Discovery Services UK Limited
Protocol: as §1, §2

Lyn = target: T6, Lyn (Homo sapiens, UniProt P07948); test: as above; format: biochemical; details: Table 5
T6 construct: purchased Eurofins Pharma Discovery Services UK Limited
Protocol: as §1, §2

Yes = target: T7, Yes (Homo sapiens, UniProt P07947); test: as above; format: biochemical; details: Table 5
T7 construct: purchased Eurofins Pharma Discovery Services UK Limited
Protocol: as §1, §2

cSRC = target: T8, cSRC (Homo sapiens, UniProt P12931); test: as above; format: biochemical; details: Table 5
T8 construct: purchased Eurofins Pharma Discovery Services UK Limited
Protocol: as §1, §2

Hck = target: T9, Hck (Homo sapiens, UniProt P08631); test: as above; format: biochemical; details: Table 5
T9 construct: purchased Eurofins Pharma Discovery Services UK Limited
Protocol: as §1
The ability of polypeptides of the present invention to activate Src family kinases was examined in vitro. Lck activation studies were carried out as described above and all Lck activity values are shown as percentage relative to control. […]

T1 sequence (P06239 whole entry): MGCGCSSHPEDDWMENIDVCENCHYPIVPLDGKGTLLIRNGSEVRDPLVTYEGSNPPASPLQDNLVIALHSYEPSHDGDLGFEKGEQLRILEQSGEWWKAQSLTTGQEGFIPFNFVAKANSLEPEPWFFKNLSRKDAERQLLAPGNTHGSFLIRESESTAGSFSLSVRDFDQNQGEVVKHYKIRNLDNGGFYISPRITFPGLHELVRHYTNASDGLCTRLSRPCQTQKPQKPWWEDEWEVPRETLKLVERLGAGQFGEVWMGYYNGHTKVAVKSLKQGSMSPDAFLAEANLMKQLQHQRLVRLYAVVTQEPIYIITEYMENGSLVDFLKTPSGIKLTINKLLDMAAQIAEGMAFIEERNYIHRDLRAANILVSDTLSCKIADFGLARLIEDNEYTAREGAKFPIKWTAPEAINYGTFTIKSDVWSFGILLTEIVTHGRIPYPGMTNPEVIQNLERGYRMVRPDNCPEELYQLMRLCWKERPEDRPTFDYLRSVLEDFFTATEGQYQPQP
T2 sequence (P06239 whole entry): as above
T3 sequence (P51451 whole entry, species assumed): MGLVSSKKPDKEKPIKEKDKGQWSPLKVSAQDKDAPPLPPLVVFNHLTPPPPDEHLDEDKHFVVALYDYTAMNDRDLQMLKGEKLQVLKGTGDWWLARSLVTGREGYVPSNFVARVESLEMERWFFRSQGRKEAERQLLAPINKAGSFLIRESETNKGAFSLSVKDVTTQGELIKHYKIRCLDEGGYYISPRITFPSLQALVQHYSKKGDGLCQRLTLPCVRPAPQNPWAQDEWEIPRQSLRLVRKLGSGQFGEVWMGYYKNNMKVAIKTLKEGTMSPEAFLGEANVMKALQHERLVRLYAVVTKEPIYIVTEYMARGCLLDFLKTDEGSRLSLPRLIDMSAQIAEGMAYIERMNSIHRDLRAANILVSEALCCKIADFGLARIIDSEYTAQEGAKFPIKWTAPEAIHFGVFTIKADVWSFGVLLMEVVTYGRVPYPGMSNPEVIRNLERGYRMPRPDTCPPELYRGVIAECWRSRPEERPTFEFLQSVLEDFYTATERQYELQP
T5 sequence (P06241 whole entry, species assumed): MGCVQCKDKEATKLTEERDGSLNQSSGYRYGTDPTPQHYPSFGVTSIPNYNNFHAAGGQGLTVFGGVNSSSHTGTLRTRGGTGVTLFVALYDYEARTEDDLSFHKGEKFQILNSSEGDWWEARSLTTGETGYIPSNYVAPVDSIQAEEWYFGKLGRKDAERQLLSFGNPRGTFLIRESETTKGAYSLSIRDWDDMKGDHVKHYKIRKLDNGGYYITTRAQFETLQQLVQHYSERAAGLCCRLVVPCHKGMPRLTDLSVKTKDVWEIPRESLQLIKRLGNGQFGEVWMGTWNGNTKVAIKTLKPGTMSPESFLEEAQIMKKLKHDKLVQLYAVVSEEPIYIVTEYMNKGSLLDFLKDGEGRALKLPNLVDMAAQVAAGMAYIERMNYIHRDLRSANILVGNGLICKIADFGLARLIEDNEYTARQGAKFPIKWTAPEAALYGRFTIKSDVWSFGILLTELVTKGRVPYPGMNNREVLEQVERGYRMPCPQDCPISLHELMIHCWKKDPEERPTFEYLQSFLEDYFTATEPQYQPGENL
T9 sequence (P08631 whole entry, species assumed): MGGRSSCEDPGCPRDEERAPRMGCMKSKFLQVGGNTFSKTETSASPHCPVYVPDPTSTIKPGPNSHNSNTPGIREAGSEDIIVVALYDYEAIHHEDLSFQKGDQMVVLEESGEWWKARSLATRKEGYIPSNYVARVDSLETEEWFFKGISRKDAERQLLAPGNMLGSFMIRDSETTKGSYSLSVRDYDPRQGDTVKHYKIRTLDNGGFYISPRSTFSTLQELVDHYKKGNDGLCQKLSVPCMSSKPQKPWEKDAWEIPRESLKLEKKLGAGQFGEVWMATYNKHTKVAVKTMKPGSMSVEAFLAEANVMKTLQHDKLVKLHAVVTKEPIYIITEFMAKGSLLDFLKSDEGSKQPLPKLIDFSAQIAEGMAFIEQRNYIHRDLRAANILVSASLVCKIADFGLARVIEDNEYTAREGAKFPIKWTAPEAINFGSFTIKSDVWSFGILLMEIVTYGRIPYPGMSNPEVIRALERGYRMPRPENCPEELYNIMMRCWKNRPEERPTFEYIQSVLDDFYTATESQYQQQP
T7 sequence (P07947 whole entry, species assumed): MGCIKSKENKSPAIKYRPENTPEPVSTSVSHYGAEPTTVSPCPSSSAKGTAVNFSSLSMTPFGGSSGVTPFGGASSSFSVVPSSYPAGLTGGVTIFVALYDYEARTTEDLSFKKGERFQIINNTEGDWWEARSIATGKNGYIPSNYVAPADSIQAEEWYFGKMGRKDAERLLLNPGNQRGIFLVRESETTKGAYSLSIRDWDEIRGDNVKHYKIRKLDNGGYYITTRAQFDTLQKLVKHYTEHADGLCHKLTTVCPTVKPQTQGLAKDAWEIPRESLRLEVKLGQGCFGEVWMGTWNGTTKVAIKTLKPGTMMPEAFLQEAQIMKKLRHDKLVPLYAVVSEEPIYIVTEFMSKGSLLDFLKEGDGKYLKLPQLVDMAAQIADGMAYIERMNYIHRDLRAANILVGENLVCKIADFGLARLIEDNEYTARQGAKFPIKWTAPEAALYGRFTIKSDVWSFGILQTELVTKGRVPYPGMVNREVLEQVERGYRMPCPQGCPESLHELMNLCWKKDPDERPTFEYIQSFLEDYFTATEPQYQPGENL
T6 sequence (P07948 whole entry, species assumed): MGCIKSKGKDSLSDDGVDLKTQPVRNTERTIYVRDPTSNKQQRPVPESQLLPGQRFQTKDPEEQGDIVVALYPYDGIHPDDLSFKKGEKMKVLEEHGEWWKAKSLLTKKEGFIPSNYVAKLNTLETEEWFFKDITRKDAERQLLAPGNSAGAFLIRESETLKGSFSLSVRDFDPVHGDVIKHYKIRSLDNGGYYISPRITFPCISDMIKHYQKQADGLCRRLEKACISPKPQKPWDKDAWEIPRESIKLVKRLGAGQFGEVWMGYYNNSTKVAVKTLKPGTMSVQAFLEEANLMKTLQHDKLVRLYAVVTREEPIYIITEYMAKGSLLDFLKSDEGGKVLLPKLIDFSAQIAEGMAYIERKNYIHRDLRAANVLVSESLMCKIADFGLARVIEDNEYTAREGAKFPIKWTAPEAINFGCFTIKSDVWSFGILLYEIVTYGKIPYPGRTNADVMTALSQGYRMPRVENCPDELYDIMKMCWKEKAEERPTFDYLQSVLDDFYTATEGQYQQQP

Molecule: CCCCCCCCCCC(N)C(=O)O (stereo not drawn) [H-(2Adod)1-OH]
- Lck activation above control (1 μM) (Lck; Table 7): 0%
- Lck activation above control (10 μM) (Lck; 10 μM, Table 7): 0%

Molecule: CCCCCCCCCCC(N)C(=O)NC(CCCCCCCCCC)C(=O)O (stereo not drawn) [H-(2Adod)2-OH]
- Lck activation above control (1 μM) (Lck; Table 7): 0%
- Lck activation above control (10 μM) (Lck; 10 μM, Table 7): 18%

Molecule: CCCCCCCCCCC(N)C(=O)NC(CCCCCCCCCC)C(=O)NC(CCCCCCCCCC)C(=O)O (stereo not drawn) [H-(2Adod)3-OH]
- Lck activation above control (1 μM) (Lck; Table 7): 0%
- Lck activation above control (10 μM) (Lck; 10 μM, Table 7): 0%

Molecule: CCCCCCCCCCC(N)C(=O)NC(CCCCCCCCCC)C(=O)NC(CCCCCCCCCC)C(=O)NC(CCCCCCCCCC)C(=O)O (stereo not drawn) [H-(2Adod)4-OH] (H-[ξGly(decyl)][ξGly(decyl)][ξGly(decyl)][ξGly(decyl)]-OH)
- Lck activation above control (1 μM) (Lck; Table 7): 0%
- Lck activation above control (10 μM) (Lck; 10 μM, Table 7): 0%

Molecule: DSEAENPLYD-(2Adod)4-NH2 (DSEAENPLYD-{2Adod-2Adod-2Adod-2Adod-NH2}) [DSEAENPLYD-(2-Adod)4-NH2, anionic residues at 1, 3, 5, 10 in place of Arg and Lys]
- Lck activation (FIG. 30) (Lck; cationic versus anionic residues): does not increase the activity of Lck

Molecule: RSKAKNPLY
- auto-phosphorylation of Lck at Y394 (Lck(h)): induces a dose-dependent auto-phosphorylation of Lck
- IL-2 secretion (wild-type Jurkat cells): increase IL-2 secretion
- IL-12 secretion (wild-type Jurkat cells): increase IL-12 secretion

Molecule: RSKAKNPLYR
- auto-phosphorylation of Lck at Y394 (Lck(h)): does not increase
- IL-2 secretion (wild-type Jurkat cells): increase IL-2 secretion
- IL-12 secretion (wild-type Jurkat cells): not

Molecule: RSKAKNPLYR-1C10-OH (RSKAKNPLYR-{2Adod-OH}) [… coupled at the C-terminal end toone 2-amino dodecanoic acid residue]
- Lck Activity 10 μM (Lck; 10 μM, Table 8): 221%
- Lck Activity 30 μM (Lck; 30 μM, Table 8): 277%

Molecule: RSKAKNPLYR-(2Adod)4-OH (RSKAKNPLYR-{2Adod-2Adod-2Adod-2Adod-OH}) [… coupled to four 2-amino dodecanoic acid residues, non-amidated]
- Lck activation above control (1 μM) (Lck; Table 9): 252%
- Lck activation above control (10 μM) (Lck; 10 μM, Table 9): 395%

Molecule: RVKVKVVVV
- Lck Activity (1 μM), kinase Blk (Blk; 1 μM): 0%
- Lck Activity (10 μM), kinase Blk (Blk; 10 μM): 0%
- Lck Activity (1 μM), kinase Fgr (Fgr; 1 μM): 0%
- Lck Activity (10 μM), kinase Fgr (Fgr; 10 μM): 0%
- Lck Activity (1 μM), kinase Fyn (Fyn; 1 μM): 0%
- Lck Activity (10 μM), kinase Fyn (Fyn; 10 μM): 0%
- Lck Activity (1 μM), kinase Lyn (Lyn; 1 μM): 0%
- Lck Activity (10 μM), kinase Lyn (Lyn; 10 μM): 0%
- Lck Activity (1 μM), kinase Yes (Yes; 1 μM): 0%
- Lck Activity (10 μM), kinase Yes (Yes; 10 μM): 0%
- Lck Activity (1 μM), kinase c-Src (cSRC; 1 μM): 0%
- Lck Activity (10 μM), kinase c-Src (cSRC; 10 μM): 0%
- Lck Activity (1 μM), kinase Hck (Hck; 1 μM): 0%
- Lck Activity (10 μM), kinase Hck (Hck; 10 μM): 0%
